Results taken from patent publication US20220160767A1 (CHILDREN S NATIONAL MEDICAL CENTER, published 2022).

Target: T1, HLA-DRB1*11:01 (human, UniProt P01911 30-227; P01903 26-216)
T1 construct: whole, on cells; Class II molecule on irradiated, partially HLA-matched PHA-blasts; Only the DRB1 allele is printed; also called HLA-DR11
Assay: restriction testing: IFN-γ ELISpot of CSTs with partially HLA-matched PHA-blasts pulsed with peptide (indirect read-out)

LRGHLRIAGHHLGRC (also called LRGHLRIAGHHLGRC) [Membrane peptide 37 (AA 145-160)]: binds.
